From publication PMC3355152, “Crystal Structures of Lsm3, Lsm4 and Lsm5/6/7 from Schizosaccharomyces pombe” (PLoS ONE, 2012)

Assays:
[1] = target: the molecule itself; experiment: AUC; sedimentation velocity, 42000 r.p.m., 20°C, 20 mM Hepes pH 7.5, 100 mM NaCl; 0.75, 1.0 and 1.5 mg/ml; c(S) and c(M) distributions (SEDFIT)
[2] = target: the molecule itself; experiment: crystal structure; SeMet crystals grown from the SeMet-SpLsm2/3 sample; hanging drop, 15°C, 0.1 M Mes pH 6.5, 0.2 M MgCl2, 40% MPD; 2.7 Å, SAD; only SpLsm3 in the crystal
[3] = target: the molecule itself; experiment: AUC; sedimentation equilibrium, 20°C, 20 mM Hepes pH 7.5, 500 mM NaCl; 15,000, 18,000, 25,000 rpm; 0.3-1.5 mg/ml; fitted to a monomer-trimer model (HETEROANALYSIS); monomer to trimer

Protein	stoichiometry N [1]	also measured
ScLsm3 (Lsm3 from S. cerevisiae) (natural protein, Lsm3 (Sm-like protein 3), Saccharomyces cerevisiae; the Lsm3 gene amplified from genomic DNA; printed monomer mass 10450 Da; source: E. coli B834 (DE3), purified (TALON Co2+, PreScission cleavage, second TALON, Superdex-200); not shown: His6, N-terminal, cleaved) METPLDLLKLNLDERVYIKLRGARTLVGTLQAFDSHCNIVLSDAVETIYQLNNEELSESERRCEMVFIRGDTVTLISTPSEDDDGAVEI	8	
SpLsm5/6/7 sub-complex (trimeric complex of SpLsm5, SpLsm6 and SpLsm7) (complex, SeMet-substituted in the crystal | SeMet-substituted in the crystal | SeMet-substituted in the crystal, Lsm5 (Sm-like protein 5), S. pombe, full length; Lsm6 (Sm-like protein 6), S. pombe, full length; Lsm7 (Sm-like protein 7), S. pombe, full length; One copy of each subunit (printed mass of this unit 31240 Da); two such trimers form the hexameric ring; source: E. coli B834 (DE3), co-expressed (pETDuet-1 and pACYCDuet-1), purified (TALON Co2+, Superdex-200); copies: 1 + 1 + 1) chain 1: not shown chain 2: MDSSPNEFLNKVIGKKVLIRLSSGVDYKGILSCLDGYMNLALERTEEYVNGKKTNVYGDAFIRGNNVLYVSALDD chain 3: MSSLQKRPGPGNSSQPTERPRKESILDLSRYQDQRIQATFTGGRQITGILKGFDQLMNLVLDDVEEQLRNPEDGKLTGAIRKLGLVVVRGTTLVLIAPMDGSEEIPNPFVQAE	2	
SpLsm3 from the co-expressed SpLsm2/3 sample (natural protein, SeMet-substituted in the crystal, Lsm3 (Sm-like protein 3), S. pombe, full length; inserted into MCS2 of pETDuet-1, no tag told; The SpLsm3 crystals grew from the SeMet-SpLsm2/3 sample; Residues 1-8 and 56-69 are disordered in the model; also called SeMet-SpLsm3; source: E. coli B834 (DE3), co-expressed with His6-SpLsm2 (pETDuet-1 MCS2), purified (TALON Co2+, Superdex-200)) not shown		stoichiometry N [2]: 7
SpLsm4N (C-terminal truncated Lsm4 from S. pombe, residues 1-91) (domain or fragment, UniProt O14352 1-91, looked up, SeMet-substituted in the crystal, Lsm4 (Sm-like protein 4), S. pombe, residues 1-91; printed monomer mass 12204 Da; No cleavage of the His6 tag is told for this construct; The model covers residues 12-71; also called N-terminal region of Lsm4; source: E. coli B834 (DE3), purified (TALON Co2+, Superdex-75)) MLPLTLLNATQGRPILVELKNGETFNGHLENCDNYMNLTLREVIRTMPDGDKFFRLPECYIRGNNIKYLRIQDEVLSQVAKQQAQQRENRG		stoichiometry N [3]: 3
SpLsm3 (Lsm3 from S. pombe, expressed alone) (natural protein, Lsm3 (Sm-like protein 3), S. pombe, full length; modified pETDuet-1 MCS1 with N-terminal His6-tag followed by a PreScission site; printed monomer mass 11087 Da; source: E. coli B834 (DE3), purified (TALON Co2+, PreScission cleavage, second TALON, Superdex-200); not shown: His6, N-terminal, cleaved) not shown	7	
